Experimental findings from patent publication US7217865B2, “Transgenic high tryptophan plants” (Monsanto Technology LLC, priority 2001, dated 2007) are described below.

The test system of data set [1] is C=C(O[C@@H]1C=C(C(=O)O)C=C[C@H]1O)C(=O)O. Kind of data set: Anthranilate synthase enzyme assay and kinetic analysis, S50K mutant. In kind it is biochemical, Agrobacterium tumefaciens. Conditions: other: S50K, pH 7.0, 10 mM L-glutamine, 2.5–100 μM chorismate, 25.0 °C. The text has this: (§1) Site directed mutagenesis was used to generate ten single amino acid substitutions six sites. The mutations were introduced into the Agrobacterium tumefaciens AS in pMON34705 using the QuikChange™ Site-Directed Mutagenesis Kit (Stratagene). The primers used for site directed mutagenesis were SEQ ID NO:9–42 (FIG. 7; F=forward, R=reverse). Each primer sequence is specific for alteration of the nucleic acid at a specific location in the sequence and thus changing the encoded codon to code for a new amino acid. For example, S51C designates a change from serine to cysteine at amino acid position 51 in the Agrobacterium tumefaciens AS peptide sequence.
(§2) Following mutagenesis the sequence of the entire gene was reconfirmed and the variants expressed and purified from E. coli as described below for the wild type enzyme. The resultant plasmids comprising mutant Agrobacterium tumefaciens AS are suitably cloned into a plasmid for overproduction of protein using the T7 expression system as described in Example 1.
(§3) Agrobacterium tumefaciens AS wild type and mutant enzymes were expressed in E. coli as described in Example 1. The purification of all the Agrobacterium tumefaciens AS enzymes, including wild type and mutants therof, was performed at 4° C. The cells (approximate wet weight of 1 g) were suspended in 20 ml of purification buffer (50 mM potassium phosphate, pH […], 10 mM 2-mercaptoethanol, 10% glycerol) and lysed by ultrasonication (Branson sonifier Cell Disruptor, W185). Supernatant was collected after centrifugation of the homogenate at 20,000× g for 15 min. The supernatant was subjected to ammonium sulfate fractionation (30 to 65% saturation). The precipitate was collected after centrifugation at 20,000× g for […] and dissolved in 3 ml of the purification buffer and then loaded as a whole on an Econo-Pac 10DG desalting column, pre-equilibrated with the same buffer. Fractions containing the enzyme were detected by the developed assay and pooled. The pooled enzyme (4.3 mls) was loaded on a 10 ml DEAE Sephacel (Pharmacia Biotech) column (1.5×7.5 cm) equilibrated with the same buffer. The column was washed with 30 ml of the purification buffer and the enzyme was eluted with 30 ml of 50 mM NaCl in the same buffer. Fractions containing high AS activity were pooled and precipitated by 65% ammonium sulfate saturation and isolated and desalted as above. Fractions containing the enzyme were pooled and stored at −80° C.
(§4) The standard assay for Agrobacterium tumefaciens AS was performed at 25° C. in an assay buffer containing 100 mM potassium phosphate, pH 7.0, 1 0 mM MgCl2, 1 mM dithiothreitol, 200 μM chorismate and 10 mM L-glutamine. The reaction was started by adding 30 μl of enzyme to the reaction mixture and mixing. The formation of anthranilate was directly monitored by the absorbance increase at […] for 3 min. Initial rate of reaction was calculated as unit absorbance increase per second based on the slope of the absorbance change over the reaction time. Km for chorismate (Km^Cho) was determined in the total volume of 1 ml assay buffer containing 100 mM potassium phosphate, pH 7.0, 10 mM MgCl2, 1 mM dithiothreitol with 10 mM L-glutamine and varying the concentration of chorismate between 2.5–100 μM chorismate. […] Kinetic parameters and IC50 of AS were calculated after fitting the data to a non-linear regression program (GraFit).

Data set [2] relates to NC(=O)CC[C@H](N)C(=O)O. Described as above. Particulars: other: S50K, pH 7.0, 200 μM chorismate, 0.1–2 mM L-glutamine, 25.0 °C. In kind it is biochemical, Agrobacterium tumefaciens.
Text: as §1, §2, §3, §4

For data set [3], the system named is C=C(O[C@@H]1C=C(C(=O)O)C=C[C@H]1O)C(=O)O. Kind of data set: Anthranilate synthase enzyme assay and kinetic analysis, S51C mutant. In kind it is biochemical, Agrobacterium tumefaciens. Particulars: other: S51C, pH 7.0, 10 mM L-glutamine, 2.5–100 μM chorismate, 25.0 °C.
Text: as §1, §2, §3, §4

In data set [4] the test system is NC(=O)CC[C@H](N)C(=O)O. The description is as above. In kind it is biochemical, Agrobacterium tumefaciens. Conditions: other: S51C, pH 7.0, 200 μM chorismate, 0.1–2 mM L-glutamine, 25.0 °C.
Text: as §1, §2, §3, §4

Data set [5] deals with C=C(O[C@@H]1C=C(C(=O)O)C=C[C@H]1O)C(=O)O. As to the kind of experiment: Anthranilate synthase enzyme assay and kinetic analysis, S51F mutant. Conditions: other: S51F, pH 7.0, 10 mM L-glutamine, 2.5–100 μM chorismate, 25.0 °C. The data set is classed as biochemical, Agrobacterium tumefaciens.
Text: as §1, §2, §3, §4

For data set [6], the system named is NC(=O)CC[C@H](N)C(=O)O. Described as above. In kind it is biochemical, Agrobacterium tumefaciens. Particulars: other: S51F, pH 7.0, 200 μM chorismate, 0.1–2 mM L-glutamine, 25.0 °C.
Text: as §1, §2, §3, §4

Data set [7] relates to Agrobacterium tumefaciens AS. Kind of data set: Anthranilate synthase enzyme assay and kinetic analysis of purified enzymes. In kind it is biochemical. Conditions: for IC50: inhibition by L-tryptophan. The method, then:
as §3
The standard assay for Agrobacterium tumefaciens AS was performed at 25° C. in an assay buffer containing 100 mM potassium phosphate, pH 7.0, 1 0 mM MgCl2, 1 mM dithiothreitol, 200 μM chorismate and 10 mM L-glutamine. The reaction was started by adding 30 μl of enzyme to the reaction mixture and mixing. The formation of anthranilate was directly monitored by the absorbance increase at […] for 3 min. Initial rate of reaction was calculated as unit absorbance increase per second based on the slope of the absorbance change over the reaction time. Km for chorismate (Km^Cho) was determined in the total volume of 1 ml assay buffer containing 100 mM potassium phosphate, pH 7.0, 10 mM MgCl2, 1 mM dithiothreitol with 10 mM L-glutamine and varying the concentration of chorismate between 2.5–100 μM chorismate. The Km for glutamine (Km^Gln) was determined in the total volume of 1 ml assay buffer containing 100 mM potassium phosphate, pH 7.0, 10 mM MgCl2, 1 mM dithiothreitol with 200 μM chorismate and varying the concentration of L-glutamine between 0.1–2 mM L-glutamine. IC50 for tryptophan (IC50TrP) was determined with in the total volume of 1 ml assay buffer containing 100 mM potassium phosphate, pH 7.0, 10 mM MgCl2, 1 mM dithiothreitol, 10 mM L-glutamine, 200 μM chorismate and varying the concentration of L-tryptophan between 0.1–10 mM L-tryptophan. Kinetic parameters and IC50 of AS were calculated after fitting the data to a non-linear regression program (GraFit).

The mark [8] stands for this setting: Km for chorismate, 10 mM L-glutamine, pH 7.0, 25° C., read-out: Km^Cho.
[9] abbreviates: Km for glutamine, 200 μM chorismate, pH 7.0, read-out: Km^Gln.
Where [10] appears, read: 10 mM L-glutamine, 200 μM chorismate.

Where two headings read alike, the source gives them in different places.

As to “Agrobacterium tumefaciens anthranilate synthase variant S50K, SEQ ID NO:69 (Agrobacterium fabrum str. C58; S50K)”, in data set [1], the Km – broadly, the substrate concentration at which the rate is half of its maximum – amounted to 13 µM; the kcat (commonly the maximal rate divided by the concentration of active sites) was 0.13 s⁻¹; the kcat/Km (commonly the turnover number divided by the Michaelis constant) was 10000 M⁻¹ s⁻¹. The Km in the data set with NC(=O)CC[C@H](N)C(=O)O [2] was 10 µM.

With “Agrobacterium tumefaciens anthranilate synthase variant S51C, SEQ ID NO:61 (Agrobacterium fabrum str. C58; S51C)”, in data set [3], the Km is 2.8 µM, the catalytic constant (kcat) was 0.15 s⁻¹ and the kcat/Km was 53600 M⁻¹ s⁻¹. Moreover, in the data set on NC(=O)CC[C@H](N)C(=O)O [4], the Michaelis constant (Km) was 80 µM.

For “Agrobacterium tumefaciens anthranilate synthase variant S51F, SEQ ID NO:60 (Agrobacterium fabrum str. C58; S51F)”, in data set [5], the Michaelis constant (Km) is 10 µM, the kcat is 0.08 s⁻¹ and the kcat/Km is 8000 M⁻¹ s⁻¹. The Km with NC(=O)CC[C@H](N)C(=O)O [6] came to 60 µM.

B1: F298A (protein)
chain: MVTIIQDDGAETYETKGGIQVSRKRRPTDYANAIDNYIEKLDSHRGAVFSSNYEYPGRYTRWDTAIVDPPLGISCFGRKMWIEAYNGRGEVLLDFITEKLKATPDLTLGASSTRRLDLTVNEPDRVFTEEERSKIPTVFTALRAIVDLFYSSADSAIGLFGAFGYDLAFQFDAIKLSLARPEDQRDMVLFLPDEILVVDHYSAKAWIDRYDFEKDGMTTDGKSSDITPDPFKTTDTIPPKGDHRPGEYSELVVKAKESFRRGDLFEVVPGQKFMERCESNPSAISRRLKAINPSPYSAFINLGDQEYLVGASPEMFVRVSGRRIETCPISGTIKRGDDPIADSEQILKLLNSKKDESELTMCSDVDRNDKSRVCEPGSVKVIGRRQIEMYSRLIHTVDHIEGRLRDDMDAFDGFLSHAWAVTVTGAPKLWAMRFIEGHEKSPRAWYGGAIGMVGFNGDMNTGLTLRTIRIKDGIAEVRAGATLLNDSNPQEEEAETELKASAMISAIRDAKGTNSAATKRDAAKVGTGVKILLVDHEDSFVHTLANYFRQTGATVSTVRSPVAADVFDRFQPDLVVLSPGPGSPTDFDCKATIKAARARDLPIFGVCLGLQALAEAYGGELRQLAVPMHGKPSRIRVLEPGLVFSGLGKEVTVGRYHSIFADPATLPRDFIITAESEDGTIMGIEHAKEPVAAVQFHPESIMTLGQDAGMRMIENVVVHLTRKAKTKAA
As to B1, the “kcat” value in data set [7] was found to be 0.46 s⁻¹. Besides, the Km in data set [7] (setting [8]) amounted to 9.2 µM; in data set [7] (setting [9]), 100 µM. Besides, the IC50 – broadly, the point on the concentration scale where inhibition reaches its midpoint – in data set [7] (setting [10]) amounted to 5.5 µM.

B2: F298W (protein)
chain: MVTIIQDDGAETYETKGGIQVSRKRRPTDYANAIDNYIEKLDSHRGAVFSSNYEYPGRYTRWDTAIVDPPLGISCFGRKMWIEAYNGRGEVLLDFITEKLKATPDLTLGASSTRRLDLTVNEPDRVFTEEERSKIPTVFTALRAIVDLFYSSADSAIGLFGAFGYDLAFQFDAIKLSLARPEDQRDMVLFLPDEILVVDHYSAKAWIDRYDFEKDGMTTDGKSSDITPDPFKTTDTIPPKGDHRPGEYSELVVKAKESFRRGDLFEVVPGQKFMERCESNPSAISRRLKAINPSPYSWFINLGDQEYLVGASPEMFVRVSGRRIETCPISGTIKRGDDPIADSEQILKLLNSKKDESELTMCSDVDRNDKSRVCEPGSVKVIGRRQIEMYSRLIHTVDHIEGRLRDDMDAFDGFLSHAWAVTVTGAPKLWAMRFIEGHEKSPRAWYGGAIGMVGFNGDMNTGLTLRTIRIKDGIAEVRAGATLLNDSNPQEEEAETELKASAMISAIRDAKGTNSAATKRDAAKVGTGVKILLVDHEDSFVHTLANYFRQTGATVSTVRSPVAADVFDRFQPDLVVLSPGPGSPTDFDCKATIKAARARDLPIFGVCLGLQALAEAYGGELRQLAVPMHGKPSRIRVLEPGLVFSGLGKEVTVGRYHSIFADPATLPRDFIITAESEDGTIMGIEHAKEPVAAVQFHPESIMTLGQDAGMRMIENVVVHLTRKAKTKAA
For B2, the “kcat” value in data set [7] was 0.44 s⁻¹. The Km in data set [7] (setting [8]) was 18 µM; in data set [7] (setting [9]) it was 140 µM. Further, 450 µM corresponded to half-maximal inhibition in data set [7] (setting [10]) (IC50).
